The record followed here is patent US20250051476A1 (ABDERA THERAPEUTICS, published 2025).

The test addresses T1, DLL3 on cells (SHP-77, NCI-H82, HEK-DLL3, membrane proteome array cells) (human, UniProt Q9NYJ7 27-618).
T1 construct: whole, on cells; also called hDLL3
T1 sequence (looked up): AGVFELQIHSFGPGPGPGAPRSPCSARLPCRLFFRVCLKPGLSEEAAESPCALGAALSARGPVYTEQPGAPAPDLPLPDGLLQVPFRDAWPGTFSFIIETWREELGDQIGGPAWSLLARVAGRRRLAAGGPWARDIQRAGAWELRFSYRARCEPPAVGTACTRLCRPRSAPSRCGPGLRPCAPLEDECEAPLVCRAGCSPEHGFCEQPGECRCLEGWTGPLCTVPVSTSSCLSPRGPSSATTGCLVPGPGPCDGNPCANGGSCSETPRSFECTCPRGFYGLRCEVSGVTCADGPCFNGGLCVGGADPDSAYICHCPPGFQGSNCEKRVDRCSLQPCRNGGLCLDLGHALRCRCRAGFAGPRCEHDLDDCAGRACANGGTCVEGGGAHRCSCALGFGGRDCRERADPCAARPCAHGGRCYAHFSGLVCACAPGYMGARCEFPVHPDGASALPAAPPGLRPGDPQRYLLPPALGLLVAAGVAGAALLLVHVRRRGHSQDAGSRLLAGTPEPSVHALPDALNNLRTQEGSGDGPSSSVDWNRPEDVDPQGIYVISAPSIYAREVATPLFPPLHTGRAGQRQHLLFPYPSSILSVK
The experiment in a line: flow cytometry on DLL3 expressing SHP-77 cells. (In flow cytometry, cells or beads pass a laser one at a time.)

B1: 126_zu1 (Fc fusion)
chain: QVQLVESGGGLVQPGGSLRLSCAASGITFSMYSMSWFRQAPGQGLEAVAATTTFGSTNYADSVKGRFTISRDNSKNTLYLQMNSLRAEDTAVYYCAARFTSEEYWGQGTLVTVSSEPKSSDKTHTCPPCPAPEAEGAPSVFLFPPKPKDTLMISRTPEVTCVVVDVSHEDPEVKFNWYVDGVEVHNAKTKPREEQYNSTYRVVSVLTVLHQDWLNGKEYKCKVSNKALPSSIEKTISKAKGQPREPQVYTLPPSREEMTKNQVSLTCLVKGFYPSDIAVEWESNGQPENNYKTTPPVLDSDGSFFLYSKLTVDKSRWQQGNVFSCSVMHEALHNQYTQKSLSLSPG
notes: Humanized VHHFc
For the molecule B1, the binding result is given as “binds”.
